Source: US20180355059A1

Target: recombinant human PCSK9^D374Y protein (human), Q8NBP7
Test: cell-based or functional assay

B1: 103C11E8, chimeric anti-PCSK9 antibody from hybridoma (antibody, V domains shown)
VH: QVQLQESGPGLVKPSGTLSLTCAVSGGSISSSNWWSWVRQPPGKGLEWIGEIYHSGSTNYNPSLKSRVTISVDKSKNQFSLKLSSVTAADTAVYYCARGIAVAGTDVMDAWGQGASVTVSS
VL: EIVLTQSPATLSLSPGERATLSCRASQSVSSYLVWYQQKSGQAPRLLIYGTSNRATGIPARFSGSGSGTDFTLTISSLEPEDFALYYCQQRGNWMYTFGQGTKLEIK
modifications: here or on the partner: biotinylated in the ELISA assays
With B1 the LDL (%), LDL uptake by HepG2 cells; antibody 0.67 nM was 20%, the LDL (%), LDL uptake by HepG2 cells; antibody 6.67 nM was 43.8% and the LDL (%), LDL uptake by HepG2 cells; antibody 66.70 nM was 86.4%.
